Measurements: patent US20160193316A1 (priority 1994, published 2016)

How the values were obtained:
DRB1*0401 (DR4w4) = biological target: T1, DRB1*0401 (DR4w4) (Homo sapiens, UniProt P01903+P01911, A100K/A169T/F76Y/I96L/K127E/L162R/M171V/N62H/P40V/Q125Y/R42H/S133A/S149N/S66Y/V115G/V209L/W38E); experiment: HLA class II peptide binding assay; conditions: for DR4w4 binding data: Table XIXb
T1 construct: endogenous in cells; host or cells: Preiss

DRB1*0301 (DR3) = biological target: T2, DRB1*0301 (DR3) (Homo sapiens, UniProt P01903+P01911, A100K/A102G/A103R/A169T/F55Y/I96L/K41T/L162R/M171V/P40S/Q125H/Q178H/Q39Y/R42S/S66N/T106N/T262R/W38E/Y61H); experiment: HLA class II peptide binding assay (pH 4.5); conditions: for DR3 binding information: DR3a motif peptides, unit not given, exemplary 15-mer containing the core sequence; for DR3 binding data: Table XIXb
T2 construct: endogenous in cells; host or cells: MAT

DRB1*0405 (DR4w15) = biological target: T3, DRB1*0405 (DR4w15) (Homo sapiens, UniProt P01903+P01911, A100R/A169T/D86S/F76Y/I96L/K127E/L162R/M171V/N62H/P40V/Q125Y/R42H/S133A/S149N/S66Y/V115G/V209L/W38E); experiment: HLA class II peptide binding assay; conditions: for DR4w15 binding data: Table XIXb
T3 construct: endogenous in cells; host or cells: KT3

DRB1*1101 (DR5w11) = biological target: T4, DRB1*1101 (DR5w11) (Homo sapiens, UniProt P01903+P01911, A100R/A169T/A87E/I96F/K41T/L162R/M171V/P40S/Q125H/Q178H/Q39Y/Q99D/R42S/S66Y/T262R/V115G/W38E); experiment: biochemical; format: binding
T4 construct: endogenous in cells; host or cells: Sweig
T4 sequence (P01903 26-254, other chains not shown): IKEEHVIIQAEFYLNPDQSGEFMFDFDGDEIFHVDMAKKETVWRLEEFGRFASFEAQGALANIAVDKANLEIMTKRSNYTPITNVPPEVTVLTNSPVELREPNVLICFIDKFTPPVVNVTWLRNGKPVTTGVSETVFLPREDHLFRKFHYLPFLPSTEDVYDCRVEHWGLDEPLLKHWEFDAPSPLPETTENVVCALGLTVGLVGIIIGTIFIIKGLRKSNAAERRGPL

DRB4*0101 (DRw53) = biological target: T5, DRB4*0101 (DRw53) (Homo sapiens, UniProt P01903+P13762, G164S); experiment: HLA class II peptide binding assay (pH 5.0); conditions: for DRw53 binding data: Table XIXb
T5 construct: expressed in transfected cells; host or cells: L257.6 (fibroblasts)

DRB1*0101 (DR1) = biological target: T6, DRB1*0101 (DR1) (Homo sapiens, UniProt P01903+P01911, A100R/D57E/F55L/F60I/F76Y/I96L/L162R/M171V/P40L/Q125E/R42F/V115G/Y59C); experiment: HLA class II peptide binding assay; conditions: for DR1 binding data: Table XIXb, Malaria Super Motif Peptides With Binding Data
T6 construct: endogenous in cells; host or cells: LG2
T6 sequence (P01903 26-254 partner, other chains not shown): as the sequence (P01903 26-254, other chains not shown) above

DRB1*0802 (DR8w2) = biological target: T7, DRB1*0802 (DR8w2) (Homo sapiens, UniProt P01903+P01911, A100R/A103L/A169T/F76Y/H45Y/I96F/K41T/L162R/M171V/P40S/Q125H/Q178H/Q39Y/Q99D/R218S/R42G/S66Y/V115G/W38E); experiment: biochemical; format: binding
T7 construct: endogenous in cells; host or cells: OLL

DRB1*0701 (DR7) = biological target: T8, DRB1*0701 (DR7) (Homo sapiens, UniProt P01903+P01911, A100R/A102G/A103Q/D57E/D86V/E43K/F76Y/K127E/L162R/M171V/P40G/Q125H/Q99D/R33Q/R42Y/R54Q/S133A/S66F/T210M/V115G/Y107V/Y59L/Y89S); experiment: biochemical; format: binding
T8 construct: endogenous in cells; host or cells: Pitout

DRB1*1201 (DR5w12) = biological target: T9, DRB1*1201 (DR5w12) (Homo sapiens, UniProt P01903+P01911, A100R/A169T/D57E/D86V/F55L/H45Y/K41T/L162R/M171V/P40S/Q125H/Q178H/Q39Y/Q99D/R42G/S66L/T262R/V114A/V67L/W38E/Y59H/Y61H/Y89S); experiment: HLA class II peptide binding assay; conditions: for DR5w12 binding data: Table XIXb
T9 construct: endogenous in cells; host or cells: Herluf

DRB5*0101 (DR2w2β2) = biological target: T10, DRB5*0101 (DR2w2β2) (Homo sapiens, UniProt P01903+Q30154); format: binding
T10 construct: expressed in transfected cells; host or cells: L416.3 (fibroblasts) or GM3107

HLA-A*0201 = HLA-A*0201 (Homo sapiens, UniProt P04439, D140Y/D185E/D98H/E176V/E277Q/G131W/G231S/I119V/I121R/I166T/I218V/L300P/L318F/N151K/N90K/P208A/P217A/Q86G/Q94H/R138H/R169H/T345S); experiment: HLA class I peptide binding assay; conditions: Malaria A02 motif peptides, Table VIII; unit not given
DRB1*1302 (DR6w19) = biological target: T11, DRB1*1302 (DR6w19) (Homo sapiens, UniProt P01903+P01911, A100E/A169T/K41T/L162R/M171V/P40S/Q125H/Q178H/Q39Y/Q99D/R42S/S66N/T262R/V115G/W38E/Y61H); experiment: HLA class II peptide binding assay; conditions: Table XIXb; DR6w19
T11 construct: endogenous in cells; host or cells: H0301
T11 sequence (P01903 26-254, other chains not shown): as above

DRB1*0901 (DR9) = biological target: T12, DRB1*0901 (DR9) (Homo sapiens, UniProt P01903+P01911, A100R/A103E/D57H/D86V/F55Y/F60I/F76Y/I96F/K127E/L162R/M171V/P40D/Q125H/Q99R/R33Q/R42F/S133A/S66N/T210M/V115G/W38K/Y107V/Y59G/Y89S); experiment: biochemical; format: binding
T12 construct: endogenous in cells; host or cells: HID

DRB1*1501 (DR2w2β1) = biological target: T13, DRB1*1501 (DR2w2β1) (Homo sapiens, UniProt P01903+P01911); experiment: HLA class II peptide binding assay; conditions: Table XIXb; DR2w2β1
T13 construct: expressed in transfected cells; host or cells: L466.1 (fibroblasts)

HLA-B*0702 = biological target: T14, HLA-B*0702 (Homo sapiens, UniProt P01889); experiment: HLA class I peptide binding assay; conditions: Malaria B07 super motif peptides; binding value, no unit
T14 construct: endogenous in cells; host or cells: GM3107

HLA-A*2402 = HLA-A*2402 (Homo sapiens, UniProt P04439, D101N/D140Y/D185E/E176V/E190D/F33S/G103R/G107R/I119L/I121M/I306V/K335N/L105A/L180Q/L300P/N151K/N90K/Q86E/Q94H/R106L/R138H/R89G/T104I/T345S/V100E/W191G/Y123F); experiment: HLA class I peptide binding assay
[1] = DR3a motif peptides, unit not given, exemplary 15-mer containing the core sequence

T1 sequence (P01903 26-254 partner, other chains not shown): as the sequence (P01903 26-254, other chains not shown) above

LLMDCSGSI
DR4w4 binding information (DRB1*0401 (DR4w4); [1]): 0.0340 | DR3 binding information (DRB1*0301 (DR3)): 0.0300 | DR4w15 binding information (DRB1*0405 (DR4w15); [1]): 0.0028 | DR5w11 binding information (DRB1*1101 (DR5w11)): -0.0002 | DRw53 binding information (DRB4*0101 (DRw53); [1]): 0.0057 | DR1 binding information (DRB1*0101 (DR1); [1]): 0.0041 | DR8w2 binding information (DRB1*0802 (DR8w2)): 0.0014 | DR7 binding information (DRB1*0701 (DR7)): 0.0072 | DR5w12 binding information (DRB1*1201 (DR5w12); [1]): 0.0001 | DR2w2β2 binding information (DRB5*0101 (DR2w2β2)): 0.0250 | A*0201 (binding information) (HLA-A*0201): 0.0460

LTMSNVKNV
DR4w4 binding data (DRB1*0401 (DR4w4)): 0.0023 | DR3 binding data (DRB1*0301 (DR3)): 0.0058 | DR4w15 binding data (DRB1*0405 (DR4w15)): 0.0074 | DR6w19 binding data (DRB1*1302 (DR6w19)): 0.0430 | DR5w11 binding data (DRB1*1101 (DR5w11)): 0.0030 | DRw53 binding data (DRB4*0101 (DRw53)): 0.0024 | DR1 binding data (DRB1*0101 (DR1)): 0.0018 | DR8w2 binding data (DRB1*0802 (DR8w2)): 0.0110 | DR7 binding data (DRB1*0701 (DR7)): 0.0410 | DR5w12 binding data (DRB1*1201 (DR5w12)): 0.0001 | DR2w2β2 binding data (DRB5*0101 (DR2w2β2)): 0.0009 | DR9 binding data (DRB1*0901 (DR9)): 0.0710 | A*0201 (binding information) (HLA-A*0201): 0.0010 | DR2w2β1 binding data (DRB1*1501 (DR2w2β1)): 0.0003

MPNDPNRNV
DR3 binding information (DRB1*0301 (DR3)): -0.0033 | B*0702 (binding information) (HLA-B*0702): 0.0001

PYAQEPAPF
HLA-A24 binding value (HLA-A*2402; Table X, Malaria A24 Super Motif Peptides With Binding Information, unit not given): 0.0370

QLVVILIDGI
A*0201 (binding information) (HLA-A*0201): 0.0002

SVLACLLGNV
A*0201 (binding information) (HLA-A*0201): 0.0022

TPYAGEPAPF
B*0702 (binding information) (HLA-B*0702): 0.0990

VIGPFMKAV
DR4w4 binding data (DRB1*0401 (DR4w4)): -0.0020 | DR8w2 binding data (DRB1*0802 (DR8w2)): 0.0230 | DR5w12 binding data (DRB1*1201 (DR5w12)): 0.0920 | A*0201 (binding information) (HLA-A*0201): 0.0004

VLLGGVCLVL
A*0201 (binding information) (HLA-A*0201): 0.0290

VPGAAIPYA
B*0702 (binding information) (HLA-B*0702): 0.0001

VSTVLLGGV
DR4w4 binding data (DRB1*0401 (DR4w4)): 0.0016 | DR3 binding data (DRB1*0301 (DR3)): -0.0008 | DR4w15 binding data (DRB1*0405 (DR4w15)): -0.0014 | DR6w19 binding data (DRB1*1302 (DR6w19)): 0.0006 | DR5w11 binding data (DRB1*1101 (DR5w11)): -0.0002 | DRw53 binding data (DRB4*0101 (DRw53)): -0.0005 | DR1 binding data (DRB1*0101 (DR1)): 0.0140 | DR8w2 binding data (DRB1*0802 (DR8w2)): -0.0003 | DR7 binding data (DRB1*0701 (DR7)): -0.0003 | DR5w12 binding data (DRB1*1201 (DR5w12)): 0.0005 | DR2w2β2 binding data (DRB5*0101 (DR2w2β2)): -0.0005 | DR9 binding data (DRB1*0901 (DR9)): -0.0005 | DR2w2β1 binding data (DRB1*1501 (DR2w2β1)): 0.0001

WVNHAVPLA
DR4w4 binding data (DRB1*0401 (DR4w4)): 5.0000 | DR3 binding data (DRB1*0301 (DR3)): 0.4000 | DR4w15 binding data (DRB1*0405 (DR4w15)): 0.0360 | DR6w19 binding data (DRB1*1302 (DR6w19)): 0.8900 | DR5w11 binding data (DRB1*1101 (DR5w11)): 0.0079 | DRw53 binding data (DRB4*0101 (DRw53)): 0.0430 | DR1 binding data (DRB1*0101 (DR1)): 0.1900 | DR8w2 binding data (DRB1*0802 (DR8w2)): 1.8000 | DR7 binding data (DRB1*0701 (DR7)): 0.4400 | DR5w12 binding data (DRB1*1201 (DR5w12)): 0.0240 | DR2w2β2 binding data (DRB5*0101 (DR2w2β2)): 0.1600 | DR9 binding data (DRB1*0901 (DR9)): 4.6000 | A*0201 (binding information) (HLA-A*0201): 0.0008 | DR2w2β1 binding data (DRB1*1501 (DR2w2β1)): 0.0350

YQNNIVDEI
DR4w4 binding data (DRB1*0401 (DR4w4)): -0.0006 | DR3 binding data (DRB1*0301 (DR3)): 0.0026 | DR4w15 binding data (DRB1*0405 (DR4w15)): -0.0014 | DR6w19 binding data (DRB1*1302 (DR6w19)): 0.0810 | DR5w11 binding data (DRB1*1101 (DR5w11)): -0.0004 | DRw53 binding data (DRB4*0101 (DRw53)): 0.0850 | DR1 binding data (DRB1*0101 (DR1)): 0.0001 | DR8w2 binding data (DRB1*0802 (DR8w2)): -0.0003 | DR7 binding data (DRB1*0701 (DR7)): -0.0003 | DR5w12 binding data (DRB1*1201 (DR5w12)): 0.0001 | DR2w2β2 binding data (DRB5*0101 (DR2w2β2)): -0.0006 | DR9 binding data (DRB1*0901 (DR9)): -0.0005 | DR2w2β1 binding data (DRB1*1501 (DR2w2β1)): 0.0001

YYIPHQSSL
A*201 (binding information) (HLA-A*2402): 4.3000 | A*2401 (binding information, Malaria A24 motif peptides) (HLA-A*2402): 4.3000
